Results taken from patent US20250043019A1 (Janssen / Centocor, published 2025).
Where a chain is given by its changes, count along the chain named. Names and notes keep the numbering of the source.

B1: C923B74 CD79bxCD20xCD3 trispecific antibody (other)
heavy: QVQLQQSGPGLVKPSQTLSLTCAISGDSVSSNSATWNWIRQSPSRGLEWLGRTYYRSKWYNDYTVSVKSRITINPDTSKNQFSLQLNSVTPEDTAVYYCTRVDIAFDYWGQGTLVTVSSASTKGPSVFPLAPSSKSTSGGTAALGCLVKDYFPEPVTVSWNSGALTSGVHTFPAVLQSSGLYSLSSVVTVPSSSLGTQTYICNVNHKPSNTKVDKKVEPKSCDKTHTCPPCPAPEAAGGPSVFLFPPKPKDTLMISRTPEVTCVVVSVSHEDPEVKFNWYVDGVEVHNAKTKPREEQYNSTYRVVSVLTVLHQDWLNGKEYKCKVSNKALPAPIEKTISKAKGQPREPQVYTLPPSREEMTKNQVSLSCAVKGFYPSDIAVEWESNGQPENNYKTTPPVLDSDGSFFLVSKLTVDKSRWQQGNVFSCSVMHEALHNRFTQKSLSLSPGK
light: QTVVTQPPSVSEAPRQRVTISCSGSSSNIGNHGVNWYQQLPGKAPKLLIYNDDLLPSGVSDRFSGSTSGTSGSLAISGLQSEDEADYYCAAWDDSLNGVVFGGGTKLTVLGQPKAAPSVTLFPPSSEELQANKATLVCLISDFYPGAVTVAWKADSSPVKAGVETTTPSKQSNNKYAASSYLSLTPEQWKSHRSYSCQVTHEGSTVEKTVAPTECS
chain: EIVLTQSPATLSASPGERVTLSCSASSSVSYMNWYQQKPGQAPRRWIYDSSKLASGVPARFSGSGSGRDYTLTISSLEPEDFAVYYCQQWSRNPPTFGGGTKVEIKGGSEGKSSGSGSESKSTGGSQVQLVQSGAEVKKPGSSVKVSCKASGYTFTRSTMHWVKQAPGQGLEWIGYINPSSAYTNYNQKFQGRVTLTADKSTSTAYMELSSLRSEDTAVYYCASPQVHYDYAGFPYWGQGTLVTVSSEPKSSDKTHTCPPCPAPEAAGGPSVFLFPPKPKDTLMISRTPEVTCVVVSVSHEDPEVKFNWYVDGVEVHNAKTKPREEQYNSTYRVVSVLTVLHQDWLNGKEYKCKVSNKALPAPIEKTISKAKGQPREPQVYTLPPSREEMTKNQVSLWCLVKGFYPSDIAVEWESNGQPENNYKTTPPVLDSDGSFFLYSKLTVDKSRWQQGNVFSCSVMHEALHNHYTQKSLSLSPGKGGSEGKSSGSGSESKSTGGSAIQLTQSPSSLSASVGDRVTITCRASSSVSYIHWFQQKPGKAPKPLIYATSNLASGVPSRFSGSGSGTDFTLTISSLQPEDFATYYCQQWTSNPPTFGQGTKLEIKGGSEGKSSGSGSESKSTGGSQVQLVQSGAEVKKPGSSVKVSCKASGYTFTSYNMHWVRQAPGQGLEWMGAIYPGNGDTSYAQKFQGRVTITADKSTSTAYMELSSLRSEDTAVYYCARSTYYGGDWYFNVWGQGTLVTVSS
notes: Trispecific IgG1; also called CD9B330-N31S / CD3B2030-N106A-scFv-LH-C20B22
B2: C20B648 anti-CD20 binder (antibody, V domains shown)
VH: QVQLVQSGAEVKKPGSSVKVSCKASGYTFSSYNMHWVRQAPGQGLEWMGAIYPGAGDTSYAQKFQGRVTITADESTSTAYMELSSLRSEDTAVYYCARSNYYGSSGWYFDVWGKGTTVTVSS
VL: EIVLTQSPATLSLSPGERATLSCRASLSVSSMHWYQQKPGQAPRLLIYATSNLASGIPARFSGSGSGTDFTLTISSLEPEDFAVYYCQQWIFNPPTFGGGTKVEIK

Assays:
[1] = molecular target: T1, human CD79b and CD20 co-expressed on the surface of B-lymphoma cell lines or primary B cells (human, UniProt P11836 1-297); test: cell-based or functional assay
T1 sequence 1: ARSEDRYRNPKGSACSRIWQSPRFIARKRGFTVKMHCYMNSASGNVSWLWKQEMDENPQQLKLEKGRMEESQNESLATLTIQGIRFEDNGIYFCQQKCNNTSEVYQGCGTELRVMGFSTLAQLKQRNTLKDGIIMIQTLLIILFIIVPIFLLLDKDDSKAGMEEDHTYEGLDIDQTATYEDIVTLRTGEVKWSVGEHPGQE
T1 sequence 2: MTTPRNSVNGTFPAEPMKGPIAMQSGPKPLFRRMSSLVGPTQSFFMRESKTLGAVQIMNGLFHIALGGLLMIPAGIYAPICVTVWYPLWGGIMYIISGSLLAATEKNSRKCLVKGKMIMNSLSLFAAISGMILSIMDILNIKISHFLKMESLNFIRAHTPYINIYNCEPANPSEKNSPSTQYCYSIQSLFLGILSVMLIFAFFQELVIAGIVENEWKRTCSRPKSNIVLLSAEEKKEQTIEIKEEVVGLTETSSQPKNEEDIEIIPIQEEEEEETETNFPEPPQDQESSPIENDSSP

[2] = molecular target: T1, human CD79b and CD20 co-expressed on …; test: cell-based or functional assay; remark: listed apart in the source
[3] = molecular target: T1, human CD79b and CD20 co-expressed on …; test: flow cytometry, HBL-1 cells (CD79b+ CD20+), 1 h 37 C
Experimental: (§1) All cells were washed with BD stain buffer (BD Biosciences; Cat #554657), centrifuged at 1200 RPM for 3 minutes, with supernatant discarded. Cells were then stained for 20 minutes at 4° C. with BD stain buffer containing AlexaFluor 647 labeled anti-human IgG secondary antibody (Jackson Immuno; Cat #109-606-098) at a 1:200 dilution along with Aqua Fixable Live/Dead stain (Invitrogen; Cat #L34957) at a 1:400 dilution. All cells were washed with BD stain buffer (BD Biosciences; Cat #554657), centrifuged at 1200 RPM for 3 mins, with supernatant discarded. Cells were analyzed using Intellicyt (Sartorius) flow cytometer and mean fluorescent intensity (MFI) was generated using Forcyt software (Sartorius). MFI was graphed and EC50 values generated using GraphPad PRISM v.8. Dose response curves were generated by transforming the x axis values using the formula […]. Data was then graphed using non-linear regression curve fit analysis “log(agonist) vs. response-variable slope (four parameter)”.

[4] = molecular target: T1, human CD79b and CD20 co-expressed on …; test: flow cytometry, Carnaval cells (CD79b+ CD20+), 1 h 37 C
Experimental: as §1

[5] = molecular target: T1, human CD79b and CD20 co-expressed on …; test: cell-based or functional assay; remark: listed apart in the source
[6] = molecular target: T1, human CD79b and CD20 co-expressed on …; test: cell-based or functional assay; remark: listed apart in the source
[7] = molecular target: T1, human CD79b and CD20 co-expressed on …; test: cell-based or functional assay; remark: listed apart in the source
[8] = molecular target: T1, human CD79b and CD20 co-expressed on …; test: cell-based or functional assay; remark: listed apart in the source
[9] = molecular target: T2, recombinant extracellular domain of human CD79b, short isoform (human, UniProt P40259 29-159); test: SPR Biacore 8k, antibody captured by anti-Fc, 25 C
T2 chain: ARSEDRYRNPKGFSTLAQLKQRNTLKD
Experimental: (§2) General Protocol for SPR Affinity Assessment: Affinity assessment of the bispecific trispecific constructs against human CD79b were measure using recombinantly expressed extracellular domain of CD79b short and long isoforms (CD9W7.001 and CD9W8.001, respectively) by Surface Plasmon Resonance (SPR) using a Biacore 8k SPR system (Biacore) at 25° C. in HBSP+ buffer. Cross-reactivity of the same antibody panel was also assessed against cyno and mouse antigens (CD9W1.001 and CD9W105.001, respectively). Briefly, a C1 sensor chip was immobilized with anti-human Fc (target immobilization levels of >400 RU) using vendor recommended amino coupling protocol. […] The association and dissociation phases were measured for 2 or 3 minutes and 30 minutes, respectively.
(§3) The raw binding sensorgrams were processed using Biacore Insight software (Biacore) by double-referencing and the processed sensorgrams were analyzed for cross-reactivity and fitted to a 1:1 Langmuir model to obtain on-rates, off-rates and affinities.

[10] = molecular target: T3, recombinant extracellular domain of human CD79b, long isoform (human, UniProt P40259 29-159); test: SPR Biacore 8k, antibody captured by anti-Fc, 25 C
T3 construct: also called hu CD79b long
T3 sequence: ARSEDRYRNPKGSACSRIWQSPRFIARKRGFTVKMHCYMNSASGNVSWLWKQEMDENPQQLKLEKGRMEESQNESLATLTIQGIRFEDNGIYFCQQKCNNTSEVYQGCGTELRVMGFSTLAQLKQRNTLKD
Experimental: as §2, §3

[11] = molecular target: T4, cynomolgus monkey CD79b antigen (cynomolgus monkey); test: SPR Biacore 8k, cyno CD79b injected up to 3000 nM
T4 construct: also called cyno CD79b; CD9W1.001
How it was run: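 Antibodies captured on anti-human Fc C1 chip, CD79b extracellular domain injected in HBSP+ at 25 °C; association 2 or 3 min, dissociation 30 min. Double-referenced sensorgrams fitted to a 1:1 Langmuir model for on-rate, off-rate and affinity.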

[12] = molecular target: T1, human CD79b and CD20 co-expressed on …; test: flow cytometry, OCI-LY10 cells (CD79b+ CD20+), 1 h 37 C
Experimental: as §1

[13] = molecular target: T5, human CD20 on the cell surface (human, UniProt P11836 1-297); test: flow cytometry, human B cells
T5 construct: whole, on cells; On B-lymphoma lines, primary B cells, K562 CD20 or HEK293 transfectants; also called MS4A1; B-lymphocyte antigen CD20
T5 sequence (looked up): T1 sequence 2

[14] = molecular target: T6, cynomolgus monkey CD20 on B cells (cynomolgus monkey, UniProt M4ZHZ6 1-297); test: flow cytometry, cynomolgus B cells
T6 construct: whole, on cells
T6 sequence: T1 sequence 2 with S25P, F31L, T51A, A157V, K217R, N226S, I227V, T239V

| Binder | IC50, T-cell killing of HBL-1 (Incucyte) [1] [pM] | IC50, T-cell killing of OCI-Ly10 (Incucyte) [2] [nM] | EC50 [3] [nM] | EC50 [4] [nM] | IC50, CARNAVAL killing, 72 h (FACS) [5] [nM] | IC50, HBL-1 killing, 72 h (FACS) [5] [nM] | IC50, OCI-LY10 killing, 72 h (FACS) [5] [nM] | IC50, Daudi killing (Incucyte) [6] [nM] | IC50, CARNAVAL killing (Incucyte) [7] [nM] | Cmax (maximum cytotoxicity), donor 1 [8] [%] | Cmax (maximum cytotoxicity), donor 2 [8] [%] | Cmax (maximum cytotoxicity), donor 3 [8] [%] | EC50, autologous B-cell depletion, donor 1 [8] [nM] | EC50, autologous B-cell depletion, donor 2 [8] [nM] | Kd [9] [nM] | Kd [10] [nM] | Kd [11] [nM] | EC50 [12] [nM] | binding result [13] | binding result [14] |
| --- | --- | --- | --- | --- | --- | --- | --- | --- | --- | --- | --- | --- | --- | --- | --- | --- | --- | --- | --- | --- |
| B1 | 346 | 25.6 | 52 | 23 | 0.35 | 2.42 | 24.2 | 0.1 | 0.741 | 34 | 66 | 40 | 78 | 23 | 0.39 | 0.023 | > 3000 | 66 | – | – |
| B2 | – | – | – | – | – | – | – | – | – | – | – | – | – | – | – | – | – | – | binds | binds |
